Results reported in IntAct's records for PubMed 7561682.

B1: Focal adhesion kinase 1 (Homo sapiens), Q05397 (parent)
chain: MAAAYLDPNLNHTPNSSTKTHLGTGMERSPGAMERVLKVFHYFESNSEPTTWASIIRHGDATDVRGIIQKIVDSHKVKHVACYGFRLSHLRSEEVHWLHVDMGVSSVREKYELAHPPEEWKYELRIRYLPKGFLNQFTEDKPTLNFFYQQVKSDYMLEIADQVDQEIALKLGCLEIRRSYWEMRGNALEKKSNYEVLEKDVGLKRFFPKSLLDSVKAKTLRKLIQQTFRQFANLNREESILKFFEILSPVYRFDKECFKCALGSSWIISVELAIGPEEGISYLTDKGCNPTHLADFTQVQTIQYSNSEDKDRKGMLQLKIAGAPEPLTVTAPSLTIAENMADLIDGYCRLVNGTSQSFIIRPQKEGERALPSIPKLANSEKQGMRTHAVSVSETDDYAEIIDEEDTYTMPSTRDYEIQRERIELGRCIGEGQFGDVHQGIYMSPENPALAVAIKTCKNCTSDSVREKFLQEALTMRQFDHPHIVKLIGVITENPVWIIMELCTLGELRSFLQVRKYSLDLASLILYAYQLSTALAYLESKRFVHRDIAARNVLVSSNDCVKLGDFGLSRYMEDSTYYKASKGKLPIKWMAPESINFRRFTSASDVWMFGVCMWEILMHGVKPFQGVKNNDVIGRIENGERLPMPPNCPPTLYSLMTKCWAYDPSRRPRFTELKAQLSTILEEEKAQQEERMRMESRRQATVSWDSGGSDEAPPKPSRPGYPSPRSSEGFYPSPQHMVQTNHYQVSGYPGSHGITAMAGSIYPGQASLLDQTDSWNHRPQEIAMWQPNVEDSTVLDLRGIGQVLPTHLMEERLIRQQQEMEEDQRWLEKEERFLKPDVRLSRGSIDREDGSLQGPIGNQHIYQPVGKPDPAAPPKKPPRPGAPGHLGSLASLSSPADSYNEGVKLQPQEISPPPTANLDRSNDKVYENVTGLVKAVIEMSSKIQPAPPEEYVPMVKEVGLALRTLLATVDETIPLLPASTHREIEMAQKLLNSDLGELINKMKLAQQYVMTSLQQEYKKQMLTAAHALAVDAKNLLDVIDQARLKMLGQTRPH

Variants of: B1
Conditions: with paxi_human PXN

Effect of a mutation on the interaction, decreasing interaction:
L1035A
V928G
V1037D
R1042G
D1039A
V935A
L1034S
L931R
